Measured values from patent publication US20190284293A1, “COMBINATION THERAPY WITH ANTI-CD73 ANTIBODIES” (BRISTOL-MYERS SQUIBB COMPANY, priority 2016, published 2019).

T1: CD32b (FcgRIIb) (Homo sapiens, UniProt P31994)
T1 sequence (P31994 43-310): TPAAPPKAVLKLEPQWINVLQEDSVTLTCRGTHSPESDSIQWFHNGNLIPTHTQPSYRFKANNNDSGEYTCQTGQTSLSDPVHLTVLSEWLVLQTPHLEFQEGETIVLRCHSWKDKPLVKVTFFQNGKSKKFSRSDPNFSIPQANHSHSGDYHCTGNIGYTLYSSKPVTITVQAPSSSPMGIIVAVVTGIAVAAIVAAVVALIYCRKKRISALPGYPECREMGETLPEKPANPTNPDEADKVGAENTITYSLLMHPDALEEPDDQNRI

T2: CD32a-H131 (FcgRIIa-H131) (Homo sapiens, UniProt P12318)
T2 sequence (P12318 34-217 limits assumed): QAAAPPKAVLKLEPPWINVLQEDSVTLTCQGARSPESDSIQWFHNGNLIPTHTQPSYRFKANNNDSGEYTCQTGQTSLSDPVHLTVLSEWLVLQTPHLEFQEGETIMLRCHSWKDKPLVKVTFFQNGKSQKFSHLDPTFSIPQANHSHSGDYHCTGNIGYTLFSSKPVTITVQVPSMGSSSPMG

T3: CD32a-R131 (FcgRIIa-R131) (Homo sapiens, UniProt P12318, H167R)
T3 sequence (P12318 34-217 H167R limits assumed): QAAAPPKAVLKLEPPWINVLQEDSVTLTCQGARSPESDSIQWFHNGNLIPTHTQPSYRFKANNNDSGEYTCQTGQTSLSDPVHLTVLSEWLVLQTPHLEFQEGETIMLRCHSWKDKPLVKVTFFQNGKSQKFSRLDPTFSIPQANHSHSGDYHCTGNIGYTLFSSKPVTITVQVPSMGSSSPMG


How the values were obtained:
Experiment in all cases: SPR, antibody binding to anti-his Fab captured FcgR-his (% Rmax)
Details in all cases: 1 μM antibody
CD32b (FcgRIIb) = molecular target: T1, CD32b (FcgRIIb)
Procedure: (§1) The binding of antibodies to Fc gamma receptors (FcγRs or FcgRs) was studied using biosensor technologies including Biacore surface plasmon resonance (SPR) and Fortebio Biolayer Interferometry (BLI). SPR studies were performed on a Biacore T100 instrument (GE Healthcare) at 25° C. The Fab fragment from a murine anti-6×His antibody was immobilized on a CM5 sensor chip using EDC/NHS to a density of −3000 RU. Various his-tagged FcgRs (7 ug/ml) were captured via the C-terminal his-tag using a contact time of 30 s at 10 ul/min, and the binding of 1.0 μM antibody was evaluated in a running buffer of 10 mM NaPO4, 130 mM NaCl, 0.05% p20 (PBS-T) pH 7.1. FcgRs used for these experiments included CD64 (FcgRI), CD32a-H131 (FcgRIIa-H131), CD32a-R131 (FcgRIIa-R131), CD32b (FcgRIIb), CD16a-V158 (FcgRIIIa-V158), CD16b-NA1 (FcgRIIIb-NA1), and CD16B-NA2 (FcgRIIIb-NA2). BLI experiments were performed on a Fortebio Octet RED instrument (Pall, Fortebio) at 25° C. in 10 mM NaPO4, 130 mM NaCl, 0.05% p20 (PBS-T) pH 7.1. Antibodies were captured out of undiluted expression supernatants on protein A coated sensors, followed by the binding of 1 μM hCD32a-H131, hCD32a-R131, hCD32b, hCD16a-V158, or 0.1 μM hCD64 analytes.

[1] = molecular target: CD16a-V158 (FcgRIIIa-V158) (Homo sapiens, UniProt P08637, F176V)
Chain of CD16a-V158 (FcgRIIIa-V158) (P08637 17-208 F176V limits assumed): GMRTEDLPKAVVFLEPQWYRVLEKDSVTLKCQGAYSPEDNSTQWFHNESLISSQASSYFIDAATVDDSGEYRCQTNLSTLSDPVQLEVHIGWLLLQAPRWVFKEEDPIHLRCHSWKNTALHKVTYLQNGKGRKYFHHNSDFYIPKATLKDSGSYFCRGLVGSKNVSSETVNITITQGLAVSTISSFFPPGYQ
Procedure: as §1

CD16B-NA2 (FcgRIIIb-NA2) = CD16B-NA2 (FcgRIIIb-NA2) (Homo sapiens, UniProt O75015)
Chain of CD16B-NA2 (FcgRIIIb-NA2) (O75015 17-200 limits assumed): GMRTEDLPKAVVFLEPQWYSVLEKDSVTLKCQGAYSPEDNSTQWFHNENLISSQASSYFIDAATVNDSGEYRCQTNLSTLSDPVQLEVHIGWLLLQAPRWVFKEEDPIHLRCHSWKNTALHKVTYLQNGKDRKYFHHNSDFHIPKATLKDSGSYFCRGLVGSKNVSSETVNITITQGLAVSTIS
Procedure: as §1

[2] = molecular target: T2, CD32a-H131 (FcgRIIa-H131)
Procedure: as §1

[3] = molecular target: T3, CD32a-R131 (FcgRIIa-R131)
Procedure: as §1

CD64 (FcgRI) = CD64 (FcgRI) (Homo sapiens, UniProt P12314)
Chain of CD64 (FcgRI) (P12314 16-374): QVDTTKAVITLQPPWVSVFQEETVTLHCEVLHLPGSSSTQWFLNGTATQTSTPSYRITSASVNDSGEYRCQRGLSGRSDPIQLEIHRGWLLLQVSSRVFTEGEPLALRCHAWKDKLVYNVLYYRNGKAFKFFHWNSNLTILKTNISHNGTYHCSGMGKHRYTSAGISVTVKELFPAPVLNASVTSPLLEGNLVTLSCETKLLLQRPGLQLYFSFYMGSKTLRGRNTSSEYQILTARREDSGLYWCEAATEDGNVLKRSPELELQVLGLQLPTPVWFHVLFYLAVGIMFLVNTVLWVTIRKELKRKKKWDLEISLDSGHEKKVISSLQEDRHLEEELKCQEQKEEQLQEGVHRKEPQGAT
Procedure: as §1

% Rmax hCD32b (CD32b (FcgRIIb)) [%] | % Rmax hCD16a-V158 [1] [%] | % Rmax hCD16B-NA2 (CD16B-NA2 (FcgRIIIb-NA2)) [%] | % Rmax hCD32a-H131 [2] [%] | % Rmax hCD32a-R131 [3] [%] | % Rmax hCD64 (CD64 (FcgRI)) [%] | Molecule
4 | 3 | 0 | 100 | 30 | 6 | mAb5-IgG2.3 (protein, left off: another chain or arm of the molecule) constant: ASTKGPSVFPLAPCSRSTSESTAALGCLVKDYFPEPVTVSWNSGALTSGVHTFPAVLQSSGLYSLSSVVTVPSSNFGTQTYTCNVDHKPSNTKVDKTVERKSCVECPPCPAPPVAGPSVFLFPPKPKDTLMISRTPEVTCVVVDVSHEDPEVQFNWYVDGVEVHNAKTKPREEQFNSTFRVVSVLTVVHQDWLNGKEYKCKVSNKGLPAPIEKTISKTKGQPREPQVYTLPPSREEMTKNQVSLTCLVKGFYPSDIAVEWESNGQPENNYKTTPPMLDSDGSFFLYSKLTVDKSRWQQGNVFSCSVMHEALHNHYTQKSLSLSPGK
1 | 1 | 0 | 40 | 7 | 2 | mAb13-IgG2.3 (protein, left off: another chain or arm of the molecule) constant: ASTKGPSVFPLAPCSRSTSESTAALGCLVKDYFPEPVTVSWNSGALTSGVHTFPAVLQSSGLYSLSSVVTVPSSNFGTQTYTCNVDHKPSNTKVDKTVERKSCVECPPCPAPPVAGPSVFLFPPKPKDTLMISRTPEVTCVVVDVSHEDPEVQFNWYVDGVEVHNAKTKPREEQFNSTFRVVSVLTVVHQDWLNGKEYKCKVSNKGLPAPIEKTISKTKGQPREPQVYTLPPSREEMTKNQVSLTCLVKGFYPSDIAVEWESNGQPENNYKTTPPMLDSDGSFFLYSKLTVDKSRWQQGNVFSCSVMHEALHNHYTQKSLSLSPGK
3 | 0 | −1 | 40 | 13 | 0 | mAb11-IgG2.5 (protein, left off: another chain or arm of the molecule) constant: ASTKGPSVFPLAPSSRSTSESTAALGCLVKDYFPEPVTVSWNSGALTSGVHTFPAVLQSSGLYSLSSVVTVPSSNFGTQTYTCNVDHKPSNTKVDKTVERKCCVECPPCPAPPVAGPSVFLFPPKPKDTLMISRTPEVTCVVVDVSHEDPEVQFNWYVDGVEVHNAKTKPREEQFNSTFRVVSVLTVVHQDWLNGKEYKCKVSNKGLPAPIEKTISKTKGQPREPQVYTLPPSREEMTKNQVSLTCLVKGFYPSDIAVEWESNGQPENNYKTTPPMLDSDGSFFLYSKLTVDKSRWQQGNVFSCSVMHEALHNHYTQKSLSLSPGK
1 | 1 | 0 | 39 | 7 | 2 | mAb12-IgG2.3 (protein, left off: another chain or arm of the molecule) constant: ASTKGPSVFPLAPCSRSTSESTAALGCLVKDYFPEPVTVSWNSGALTSGVHTFPAVLQSSGLYSLSSVVTVPSSNFGTQTYTCNVDHKPSNTKVDKTVERKSCVECPPCPAPPVAGPSVFLFPPKPKDTLMISRTPEVTCVVVDVSHEDPEVQFNWYVDGVEVHNAKTKPREEQFNSTFRVVSVLTVVHQDWLNGKEYKCKVSNKGLPAPIEKTISKTKGQPREPQVYTLPPSREEMTKNQVSLTCLVKGFYPSDIAVEWESNGQPENNYKTTPPMLDSDGSFFLYSKLTVDKSRWQQGNVFSCSVMHEALHNHYTQKSLSLSPGK
